Laboratory results from US20200040059A1.

T1: CD226 (human) (UniProt Q15762)
T1 sequence: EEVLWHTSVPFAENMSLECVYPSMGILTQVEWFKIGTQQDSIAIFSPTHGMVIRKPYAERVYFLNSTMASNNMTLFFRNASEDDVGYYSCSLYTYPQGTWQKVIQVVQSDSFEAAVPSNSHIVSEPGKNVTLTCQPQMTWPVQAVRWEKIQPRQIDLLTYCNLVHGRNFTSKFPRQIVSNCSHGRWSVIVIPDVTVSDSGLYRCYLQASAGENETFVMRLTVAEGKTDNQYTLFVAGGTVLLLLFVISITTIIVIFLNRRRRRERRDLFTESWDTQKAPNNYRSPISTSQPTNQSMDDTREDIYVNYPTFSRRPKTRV

T2: TIGIT (human) (UniProt Q495A1)
T2 sequence: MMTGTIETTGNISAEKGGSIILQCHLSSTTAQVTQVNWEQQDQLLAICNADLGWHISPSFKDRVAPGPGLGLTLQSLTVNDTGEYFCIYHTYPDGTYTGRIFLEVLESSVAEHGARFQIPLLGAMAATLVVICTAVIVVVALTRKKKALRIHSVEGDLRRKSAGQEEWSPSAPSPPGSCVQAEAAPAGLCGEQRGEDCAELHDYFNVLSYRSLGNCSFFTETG

T3: CD96 (UniProt P40200)
T3 sequence (looked up): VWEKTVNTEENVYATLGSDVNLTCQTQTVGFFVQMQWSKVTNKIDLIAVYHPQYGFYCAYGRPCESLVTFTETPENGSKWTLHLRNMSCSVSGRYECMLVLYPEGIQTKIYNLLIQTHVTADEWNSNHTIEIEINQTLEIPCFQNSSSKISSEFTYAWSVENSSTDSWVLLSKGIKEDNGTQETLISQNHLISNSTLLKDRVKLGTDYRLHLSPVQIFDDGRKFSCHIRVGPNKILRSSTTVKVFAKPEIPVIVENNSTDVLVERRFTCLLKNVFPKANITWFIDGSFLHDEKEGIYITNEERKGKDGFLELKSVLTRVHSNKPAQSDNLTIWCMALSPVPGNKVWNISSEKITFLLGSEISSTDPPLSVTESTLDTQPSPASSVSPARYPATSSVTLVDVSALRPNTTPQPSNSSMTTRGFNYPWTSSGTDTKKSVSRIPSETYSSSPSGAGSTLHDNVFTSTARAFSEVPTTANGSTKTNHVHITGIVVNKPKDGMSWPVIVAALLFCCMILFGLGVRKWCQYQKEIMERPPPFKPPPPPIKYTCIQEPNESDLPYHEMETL


What was measured:
[1] = molecular target: T1, CD226 (human); assay: flow cytometry, cells expressing target, 25 nM
[2] = molecular target: CD112R (human) (UniProt Q6DKI7); assay: flow cytometry, cells expressing target, 25 nM
CD112R (human), sequence (Q6DKI7 whole entry): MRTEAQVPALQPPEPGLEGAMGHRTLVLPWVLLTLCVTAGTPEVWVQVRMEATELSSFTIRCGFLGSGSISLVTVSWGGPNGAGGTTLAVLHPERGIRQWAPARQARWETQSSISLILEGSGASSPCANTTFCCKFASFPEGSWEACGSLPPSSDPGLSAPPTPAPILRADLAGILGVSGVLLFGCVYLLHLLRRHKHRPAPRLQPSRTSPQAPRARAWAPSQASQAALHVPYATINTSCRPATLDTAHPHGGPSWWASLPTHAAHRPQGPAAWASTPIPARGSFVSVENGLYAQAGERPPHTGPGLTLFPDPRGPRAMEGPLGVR

[3] = molecular target: T2, TIGIT (human); assay: flow cytometry, cells expressing target, 25 nM
[4] = molecular target: human CD28, full-length, expressed on transfected Expi293 cells (human) (UniProt P10747); assay: flow cytometry on CD28-expressing Expi293 cells
[5] = molecular target: T1, CD226 (human); assay: flow cytometry, transfected cells
[6] = molecular target: T3, CD96; assay: flow cytometry, cells

Row | Binder | MFI [5] | MFI [6] | also measured
1 | CD155 variant IgV-Fc T15S, P18S, Y30H, Q32L, Q62R, L79P, F91S, T107M (Fc fusion, not shown: a dimerising Fc or GST; small tags and cut ends) PGTGDVVVQAPSQVSGFLGDSVTLPCHLLVPNMEVTHVSQLTWARHGESGSMAVFHQTRGPSYSESKRLEFVAARPGAELRNASLRMSGLRVEDEGNYTCLFVMFPQGSRSVDIWL |  |  | MFI at 25 nM [1]: 2090 MFI; MFI at 25 nM [2]: 1060 MFI; MFI at 25 nM [3]: 16200 MFI
2 | ICOSL variant F120S/Y152H/N201S ECD-Fc fusion (Fc fusion, not shown: a dimerising Fc or GST; small tags and cut ends) DTQEKEVRAMVGSDVELSCACPEGSRFDLNDVYVYWQTSESKTVVTYHIPQNSSLENVDSRYRNRALMSPAGMLRGDFSLRLFNVTPQDEQKFHCLVLSQSLGFQEVLSVEVTLHVAANSSVPVVSAPHSPSQDELTFTCTSINGYPRPNVHWINKTDNSLLDQALQNDTVFLNMRGLYDVVSVLRIARTPSVNIGCCIESVLLQQNLTVGSQTGNDIGERDKITENPVSTGEKNAAT |  |  | MFI [4]: 16 MFI
3 | CD155 P18T, F91S, G111D IgV-Fc (Fc fusion, not shown: a dimerising Fc or GST; small tags and cut ends) PGTGDVVVQAPTQVTGFLGDSVTLPCYLQVPNMEVTHVSQLTWARHGESGSMAVFHQTQGPSYSESKRLEFVAARLGAELRNASLRMSGLRVEDEGNYTCLFVTFPQDSRSVDIWL | 438000 | 168000 | 
4 | CD155 P18T, F91S, F108L IgV-Fc (Fc fusion, not shown: a dimerising Fc or GST; small tags and cut ends) PGTGDVVVQAPTQVTGFLGDSVTLPCYLQVPNMEVTHVSQLTWARHGESGSMAVFHQTQGPSYSESKRLEFVAARLGAELRNASLRMSGLRVEDEGNYTCLFVTLPQGSRSVDIWL | 395000 | 193000 | 
5 | CD155 P18T, T45A, F91S IgV-Fc (Fc fusion, not shown: a dimerising Fc or GST; small tags and cut ends) PGTGDVVVQAPTQVTGFLGDSVTLPCYLQVPNMEVTHVSQLAWARHGESGSMAVFHQTQGPSYSESKRLEFVAARLGAELRNASLRMSGLRVEDEGNYTCLFVTFPQGSRSVDIWL | 436000 | 191000 | 
6 | CD155 P18S, Y30C, F91S IgV-Fc (Fc fusion, not shown: a dimerising Fc or GST; small tags and cut ends) PGTGDVVVQAPTQVSGFLGDSVTLPCCLQVPNMEVTHVSQLTWARHGESGSMAVFHQTQGPSYSESKRLEFVAARLGAELRNASLRMSGLRVEDEGNYTCLFVTFPQGSRSVDIWL | 382000 | 56900 | 
7 | CD155 L88P IgV-Fc (Fc fusion, not shown: a dimerising Fc or GST; small tags and cut ends) PGTGDVVVQAPTQVPGFLGDSVTLPCYLQVPNMEVTHVSQLTWARHGESGSMAVFHQTQGPSYSESKRLEFVAARLGAELRNASPRMFGLRVEDEGNYTCLFVTFPQGSRSVDIWL | 65100 | 35300 | 
8 | CD155 R94H IgV-Fc (Fc fusion, not shown: a dimerising Fc or GST; small tags and cut ends) PGTGDVVVQAPTQVPGFLGDSVTLPCYLQVPNMEVTHVSQLTWARHGESGSMAVFHQTQGPSYSESKRLEFVAARLGAELRNASLRMFGLHVEDEGNYTCLFVTFPQGSRSVDIWL | 18900 | 11700 | 
9 | CD155 A13E, P18S, A56V, F91S IgV-Fc (Fc fusion, not shown: a dimerising Fc or GST; small tags and cut ends) PGTGDVVVQEPTQVSGFLGDSVTLPCYLQVPNMEVTHVSQLTWARHGESGSMVVFHQTQGPSYSESKRLEFVAARLGAELRNASLRMSGLRVEDEGNYTCLFVTFPQGSRSVDIWL | 358000 | 119000 | 
10 | CD155 P18T, F91S, V115A IgV-Fc (Fc fusion, not shown: a dimerising Fc or GST; small tags and cut ends) PGTGDVVVQAPTQVTGFLGDSVTLPCYLQVPNMEVTHVSQLTWARHGESGSMAVFHQTQGPSYSESKRLEFVAARLGAELRNASLRMSGLRVEDEGNYTCLFVTFPQGSRSADIWL | 38500 | 22700 | 
11 | CD155 P18T, Q60K IgV-Fc (Fc fusion, not shown: a dimerising Fc or GST; small tags and cut ends) PGTGDVVVQAPTQVTGFLGDSVTLPCYLQVPNMEVTHVSQLTWARHGESGSMAVFHKTQGPSYSESKRLEFVAARLGAELRNASLRMFGLRVEDEGNYTCLFVTFPQGSRSVDIWL | 238000 | 154000 | 
